Reference: the MegaScale stability set (Tsuboyama et al. 2023)

B1: r16_88_TrROS_Hall (parent)
chain: EVIELKIKFKTPEQREKLKEIAKKLNAEVVEEKDGEVIIRFKTPEQAERALKEAEKLGAEVEL

Variants of: B1
Assay: folding stability dG (cDNA display proteolysis); higher = more stable
Settings: PBS, room temperature

Folding stability dG [kJ/mol]: each site, then its substitutions
P12: T 19.1; V 18.8; W 20.4; Y 20.5
E13: A 18.1; C 20.4; D 18; F 20.9; G 18.9; H 18.4; I 18.1; K 18.9; L 20.4; M 19.5; N 19.1; P 19; Q 19.1; R 19.2; S 19.5; T 18.1; V 18.3; W 20.3; Y 19.9
Q14: A 18.1; C 17.9; D 17.4; E 16.7; F 17.8; G 18.1; H 17.6; I 17.1; K 17.1; L 18.1; M 18.6; N 18.7; P 14.6; R 18.5; S 17.5; T 18; V 18.3; W 18; Y 17.5
R15: A 17.3; C 18; D 17.2; E 18; F 18.2; G 16.5; H 17.8; I 18.3; K 17.3; L 17.5; M 18; N 17.5; P 14.4; Q 17.7; S 17.5; T 17.4; V 17.9; W 19.5; Y 19.2
E16: A 18.1; C 18.9; D 17.7; F 19.8; G 18.9; H 19.2; I 18.3; K 18.7; L 19.3; M 19.3; N 18.8; P 16.9; Q 18.6; R 19; S 18.6; T 18.3; V 18.7
K17: A 19; C 18.2; D 18.8; E 18; F 19.1; G 18.3; H 18.4; I 17.5; L 19; M 18.5; N 18.5; P 17.9; Q 18.5; R 18.9; S 18.6; T 17.6; V 17.9; W 19.3; Y 19.1
L18: A 18.4; C 17.2; D 5.19; E 6.57; F 17.9; G 16; H 14.6; I 18.1; K 7.04; M 17.9; N 12.4; P 6.92; Q 12.1; R 8.85; S 17.5; T 17.4; V 17.8; W 19; Y 19
K19: A 17.5; C 17.6; D 18; E 17.2; F 19.3; G 18.3; H 17.9; I 18; L 18.8; M 18.5; N 17.2; P 14.1; Q 18; R 18; S 17.8; T 18.8; V 17.3; W 19.7; Y 20.5
E20: A 18.3; C 18.9; D 17.8; F 20.8; G 18.1; H 18.8; I 18.6; K 18.4; L 20.4; M 20; N 17.8; P 15.4; Q 17.7; R 19.2; S 18.5; T 18.8; V 18.7; W 19.9; Y 20.7
I21: A 17.4; C 18; D 14.2; E 16.7; F 19.9; G 15.8; H 17.9; K 15.8; L 18.4; M 18.5; N 17.3; P 7.56; Q 17; R 15.1; S 17.5; T 18.1; V 18.1; Y 20
A22: C 17.5; D 12.2; E 17.5; F 19.4; G 19.4; H 17.6; I 18.3; K 15.8; L 19.3; M 18.2; N 17.2; P 15.5; Q 18.4; R 17.5; S 17.5; T 18.2; V 18.3; W 19.6; Y 19.8
K23: A 17.6; C 19.3; D 17.1; E 18.2; G 18.5; H 17.9; I 19.1; L 19; M 19; N 18.2; P 16.5; Q 17.9; R 18.7; S 19; T 19.4; V 19.3; W 20.1
K24: A 17.9; C 18.9; D 18.4; E 18.5; F 19.5; G 18.7; H 18; I 18.8; L 18.8; M 18.4; N 18.7; P 16.6; Q 19.1; R 18.3; S 18.7; T 18.7; V 19.3; W 19.9; Y 20.3
L25: A 16.9; C 18.2; D 18; E 17.8; F 19.4; G 17.7; H 19.3; I 18.7; K 16; M 17.9; N 17.3; P 15.4; Q 18.5; R 17.1; S 18.1; T 17.9; V 18.1; W 20.3; Y 20.5
N26: A 18.5; C 18.1; D 18; E 17.1; F 17.7; G 18.5; H 17.7; I 17.5; K 18.6; L 17.4; M 19; P 16.1; Q 18.6; R 18.5; S 18.6; T 18.5; V 18.2; W 18.3; Y 18
A27: C 17.8; D 13.1; E 16.1; F 18.4; G 18.3; H 16.9; I 18.2; K 16.5; L 18.6; M 18.5; N 15.7; P 16.8; Q 16.3; R 15.6; S 18; T 17.8; V 17.7; W 18.5; Y 17.8
E28: A 18; C 19.4; D 17.8; F 17.4; G 18.1; H 18.5; I 18.6; K 17.4; L 17.7; M 17.5; N 17.5; P 18.1; Q 18.9; R 18.3; S 17.2; T 18.4; V 18.4; W 19; Y 18.2
V29: A 18; C 18.8; D 17.3; E 18.7; F 17.7; G 18.7; H 18.9; I 18; K 18.4; L 17.6; M 18.4; N 19.3; P 17.2; Q 19.9; R 19.1; S 18.1; T 17.6; W 18; Y 19.1
V30: A 19.2; C 18.3; D 17.9; E 19.2; F 19.3; G 17.8; H 18.2; I 18.7; K 18.7; L 18.6; M 18.8; N 18.9
